Data: US20170355757A1 (Regeneron, published 2017)

B1: H4H11683N (antibody, human IgG4, V domains shown)
VH: QVQLVESGGGVVQPGRSLRLSCVASGFTFSSYGIHWVRQAPGKGLEWVAVIWDDGNNINYSDSVKGRFIISRDNSRKTVYLQMNSLRGEDTAVYYCARDAPIAPVPDYWGQGTLVTVSS
VL: DIQMTQSPSTLSASVGDRVTITCRASQSISSWLAWYQQKPGKAPKLLIYKASSLDTGVPSRFSGSGSGTEFTLTISSLQPDDFATYYCQQYNTYSYTFGLGTKLEIK
notes: also called H2M11683N
B2: H4H12161P (antibody, human IgG4, V domains shown)
VH: EVQLVESGGDLVQPGGSLRLSCAASGFTFSDHYMDWVRQAPGKGLDWIGRIRNKANAYNTEYAASVRGRFTISRDDSQNLLYLQMNSLKTDDTAVYYCVRVWNYAYFAMDVWGQGTTVTVSS
VL: DIQMTQSPSSLSASVGDRVTITCRSSQNIGIFLNWYQQKPGEAPNLLISAASSLHSGVPSRFSGSGSGTDFTLTIGSLQPEDFATYYCQQTYNTIFTFGPGTKVDIK
B3: H4H12161P (antibody, human IgG4, V domains shown)
VH: B2 VH
VL: B2 VL
notes: Human IgG4 Fc with S108P hinge mutation (H4H)
B4: H4H12171P (antibody, human IgG4, V domains shown)
VH: EVQLVESGGGVVRPGGSLRLSCAASGFTFDEYGMTWVRQVPGKGLEWVSGITWNGGFTDYTDSVKGRFTSSRDNAKNSLYLQMNSLRAEDTALYYCARDGYSSSWGAYDIWGQGTMVTVSS
VL: DIQMTQSPSSLSASVGDRVTITCRASQSISTYLNWYQQKPGKAPKLLIYAASSLQSGVPLRFSGSGSGTDFTLTISSLQPEDFASYFCQQSYSTPYTFGQGTKLEIK
B5: H4H12176P2 (antibody, human IgG4, V domains shown)
VH: EVQLVESGGGLVQPGGSLRLSCAASGFHSNRYWMDWVRQAPGKGLEWVANIKQDGSEENYVDSVKGRFTISRDNAKNSLYLQMNSLRAEDTAVYYCARDRSTSWVPYWFFDLWGRGTLVTVSS
VL: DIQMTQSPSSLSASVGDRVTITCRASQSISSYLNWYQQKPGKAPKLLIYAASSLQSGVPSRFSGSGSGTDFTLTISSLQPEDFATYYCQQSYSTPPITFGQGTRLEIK
notes: as for B3

Key:
Human C5 [1] = molecular target: T1, Human C5 (human, UniProt P01031 19-1676); assay: SPR, mAb captured by anti-hFc, 25C
T1 construct: The natural protein has a beta and an alpha chain; also called complement factor 5; complement component 5
In short: (§1)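 KD from kd/ka, obtained by 1:1 fitting of Biacore sensorgrams; C5 analytes flowed over anti-C5 mAbs held by immobilized anti-hFc antibody. Running buffer HBST pH 7.4 with EDTA and P20; 3 min association, 8 min dissociation.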

monkey C5-mmh [2] = molecular target: T2, monkey C5-mmh (monkey, UniProt P01031 19-1676 (human entry), limits assumed); assay: SPR, mAb captured by anti-hFc, 25C
T2 construct: Expressed with a C-terminal myc-myc-hexahistidine tag
T2 chain: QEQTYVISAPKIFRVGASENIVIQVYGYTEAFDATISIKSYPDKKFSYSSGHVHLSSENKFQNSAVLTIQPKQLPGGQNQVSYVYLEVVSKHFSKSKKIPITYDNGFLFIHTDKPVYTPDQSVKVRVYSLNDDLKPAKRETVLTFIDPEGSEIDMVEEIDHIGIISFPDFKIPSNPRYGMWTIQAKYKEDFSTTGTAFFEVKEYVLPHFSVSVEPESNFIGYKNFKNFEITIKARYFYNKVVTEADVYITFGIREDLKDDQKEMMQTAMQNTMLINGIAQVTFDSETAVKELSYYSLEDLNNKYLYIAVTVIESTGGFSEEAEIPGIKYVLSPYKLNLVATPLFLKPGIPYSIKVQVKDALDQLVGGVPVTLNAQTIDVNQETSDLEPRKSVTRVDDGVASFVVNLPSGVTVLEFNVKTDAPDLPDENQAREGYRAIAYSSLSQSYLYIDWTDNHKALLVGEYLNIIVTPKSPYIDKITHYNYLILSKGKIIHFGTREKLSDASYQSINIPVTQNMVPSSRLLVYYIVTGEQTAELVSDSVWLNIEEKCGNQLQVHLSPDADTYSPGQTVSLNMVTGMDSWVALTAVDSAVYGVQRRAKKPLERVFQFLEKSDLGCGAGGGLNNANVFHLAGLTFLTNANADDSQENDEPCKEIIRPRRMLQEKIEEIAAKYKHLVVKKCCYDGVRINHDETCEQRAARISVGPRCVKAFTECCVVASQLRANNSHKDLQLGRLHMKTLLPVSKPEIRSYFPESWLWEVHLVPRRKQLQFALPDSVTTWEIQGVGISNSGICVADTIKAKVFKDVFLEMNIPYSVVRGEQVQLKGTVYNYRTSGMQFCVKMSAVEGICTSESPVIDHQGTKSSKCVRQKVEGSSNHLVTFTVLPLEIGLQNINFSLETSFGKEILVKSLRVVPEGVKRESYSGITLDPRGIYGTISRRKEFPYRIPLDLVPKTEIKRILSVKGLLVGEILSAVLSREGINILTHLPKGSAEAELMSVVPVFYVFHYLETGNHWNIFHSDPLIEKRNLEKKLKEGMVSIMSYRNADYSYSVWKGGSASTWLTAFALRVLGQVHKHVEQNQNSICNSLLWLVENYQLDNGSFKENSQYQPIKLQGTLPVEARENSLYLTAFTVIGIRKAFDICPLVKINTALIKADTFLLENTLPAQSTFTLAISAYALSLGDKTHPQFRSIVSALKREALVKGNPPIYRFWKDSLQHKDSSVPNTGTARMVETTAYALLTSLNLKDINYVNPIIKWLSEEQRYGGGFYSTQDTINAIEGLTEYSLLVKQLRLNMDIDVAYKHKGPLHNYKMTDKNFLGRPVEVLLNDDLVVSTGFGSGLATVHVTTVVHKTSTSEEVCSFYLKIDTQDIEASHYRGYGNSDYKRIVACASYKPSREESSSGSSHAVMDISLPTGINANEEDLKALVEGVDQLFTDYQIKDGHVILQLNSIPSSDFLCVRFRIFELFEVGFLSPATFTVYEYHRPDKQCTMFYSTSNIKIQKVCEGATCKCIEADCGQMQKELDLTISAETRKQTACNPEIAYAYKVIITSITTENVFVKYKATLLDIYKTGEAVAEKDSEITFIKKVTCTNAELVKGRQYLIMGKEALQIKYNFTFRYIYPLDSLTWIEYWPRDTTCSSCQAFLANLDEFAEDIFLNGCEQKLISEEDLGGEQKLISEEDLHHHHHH
In short: as §1

Human C5 [3] = molecular target: T1, Human C5; assay: SPR, mAb captured by anti-hFc, 37C
In short: as §1

monkey C5-mmh [4] = molecular target: T3, monkey C5-mmh (monkey, UniProt P01031 19-1676 (human entry), limits assumed); assay: SPR, mAb captured via anti-hFc, 37C
T3 construct: Recombinant monkey C5 with a C-terminal myc-myc-hexahistidine tag
T3 chain: T2 chain
Method: (§2) Equilibrium dissociation constants (KD values) for C5 binding to purified anti-C5 antibodies were determined using a real-time surface plasmon resonance biosensor assay on a Biacore T200 instrument. The Biacore sensor surface was derivatized by amine coupling with a monoclonal mouse anti-human Fc antibody (GE Healthcare, # BR-1008-39) to capture anti-C5 antibodies expressed with human Fc constant regions. Biacore binding studies were conducted in HBST running buffer (0.01M HEPES pH 7.4, 0.15M NaCl, 3 mM EDTA, 0.05% v/v Surfactant P20).
(§3) Human C5 was obtained from a commercial source (EMD). Other C5 reagents were expressed with a C-terminal myc-myc-hexahistidine tag (subsequently referred to as C5-mmh). […] Association of all the C5 reagents to each of the captured monoclonal antibodies was monitored for 3 minutes and their dissociation in HBST running buffer was monitored for 8 minutes. All the binding kinetics experiments were performed at either 25° C. or 37° C. Kinetic association (kₐ) and dissociation (kd) rate constants were determined by fitting the real-time sensorgrams to a 1:1 binding model using Scrubber 2.0c curve fitting software. Binding dissociation equilibrium constants (KD) and dissociative half-lives (t %) were calculated from the kinetic rate constants as: KD (M)=kd/kₐ and t_{1/2} (min)=In2/(60×kd)

human C5 R885H-mmh [5] = molecular target: T4, human C5 R885H-mmh (human, UniProt P01031 19-1676); assay: SPR, mAb captured via anti-hFc, 37C
T4 construct: also called human C5 variant R885H
Method: as §2, §3

human C5 R885C-mmh [6] = molecular target: T5, human C5 R885C-mmh (human, UniProt P01031 19-1676); assay: SPR, mAb captured via anti-hFc, 37C
T5 construct: also called human C5 variant R885C
Method: as §2, §3

human C5 R885H-mmh [7] = molecular target: T4, human C5 R885H-mmh; assay: SPR, mAb captured via anti-hFc, 25C
Method: as §2, §3

human C5 R885C-mmh [8] = molecular target: T5, human C5 R885C-mmh; assay: SPR, mAb captured via anti-hFc, 25C
Method: as §2, §3

| Binder | 100 nM Human C5 Bound (RU) (Human C5 [1]) | Kd (Human C5 [1]) [nM] | koff (Human C5 [1]) [s⁻¹] | kon (Human C5 [1]) [M⁻¹ s⁻¹] | t½ (Human C5 [1]) [min] | 100 nM monkey C5-mmh Bound (RU) (monkey C5-mmh [2]) | Kd (monkey C5-mmh [2]) [nM] | koff (monkey C5-mmh [2]) [s⁻¹] | kon (monkey C5-mmh [2]) [M⁻¹ s⁻¹] | t1/2 (monkey C5-mmh [2]) [min] | 100 nM Human C5 Bound (RU) (Human C5 [3]) | Kd (Human C5 [3]) [nM] | koff (Human C5 [3]) [s⁻¹] | kon (Human C5 [3]) [M⁻¹ s⁻¹] | t½ (Human C5 [3]) [min] | 100 nM monkey C5-mmh Bound (RU) (monkey C5-mmh [4]) | Kd (monkey C5-mmh [4]) [nM] | koff (monkey C5-mmh [4]) [s⁻¹] | kon (monkey C5-mmh [4]) [M⁻¹ s⁻¹] | t1/2 (monkey C5-mmh [4]) [min] | also measured |
| --- | --- | --- | --- | --- | --- | --- | --- | --- | --- | --- | --- | --- | --- | --- | --- | --- | --- | --- | --- | --- | --- |
| B1 | 439 | 0.123 | 5.14e-05 | 417000 | 225 | 403 | 0.64 | 0.000247 | 386000 | 47 | 492 | 0.532 | 0.000241 | 454000 | 48 | – | – | – | – | – | – |
| B2 | 64 | 0.17 | 4.37e-05 | 258000 | 264 | 45 | 0.392 | 2.48e-05 | 63300 | 465 | 66 | 0.99 | 0.000115 | 116000 | 101 | – | – | – | – | – | – |
| B3 | – | – | – | – | – | – | – | – | – | – | – | – | – | – | – | 53 | 5.56 | 0.000745 | 134000 | 16 | 100 nM Human C5 R885H-mmh Bound (RU) (human C5 R885H-mmh [5]): 54 RU; Kd (human C5 R885H-mmh [5]): 7.84 nM; koff (human C5 R885H-mmh [5]): 0.000925 s⁻¹; kon (human C5 R885H-mmh [5]): 118000 M⁻¹ s⁻¹; t1/2 (human C5 R885H-mmh [5]): 12 min; 100 nM Human C5 R885C-mmh Bound (RU) (human C5 R885C-mmh [6]): 49 RU; Kd (human C5 R885C-mmh [6]): 8.17 nM; koff (human C5 R885C-mmh [6]): 0.000901 s⁻¹; kon (human C5 R885C-mmh [6]): 110000 M⁻¹ s⁻¹; t1/2 (human C5 R885C-mmh [6]): 13 min; 100 nM Human C5 R885H-mmh Bound (RU) (human C5 R885H-mmh [7]): 199 RU; Kd (human C5 R885H-mmh [7]): 0.996 nM; koff (human C5 R885H-mmh [7]): 8.32e-05 s⁻¹; kon (human C5 R885H-mmh [7]): 83600 M⁻¹ s⁻¹; t1/2 (human C5 R885H-mmh [7]): 139 min; 100 nM Human C5 R885C-mmh Bound (RU) (human C5 R885C-mmh [8]): 147 RU; Kd (human C5 R885C-mmh [8]): 0.672 nM; koff (human C5 R885C-mmh [8]): 8.71e-05 s⁻¹; kon (human C5 R885C-mmh [8]): 130000 M⁻¹ s⁻¹; t1/2 (human C5 R885C-mmh [8]): 133 min |
| B4 | 64 | 0.549 | 8.16e-05 | 149000 | 142 | 17 | 4.92 | 0.000226 | 46000 | 51 | 58 | 6.27 | 0.000762 | 122000 | 15 | – | – | – | – | – | – |
| B5 | – | – | – | – | – | – | – | – | – | – | – | – | – | – | – | 47 | 9.6 | 0.00129 | 135000 | 9 | 100 nM Human C5 R885H-mmh Bound (RU) (human C5 R885H-mmh [5]): 69 RU; Kd (human C5 R885H-mmh [5]): 3.73 nM; koff (human C5 R885H-mmh [5]): 0.000958 s⁻¹; kon (human C5 R885H-mmh [5]): 257000 M⁻¹ s⁻¹; t1/2 (human C5 R885H-mmh [5]): 12 min; 100 nM Human C5 R885C-mmh Bound (RU) (human C5 R885C-mmh [6]): 55 RU; Kd (human C5 R885C-mmh [6]): 7.32 nM; koff (human C5 R885C-mmh [6]): 0.00103 s⁻¹; kon (human C5 R885C-mmh [6]): 141000 M⁻¹ s⁻¹; t1/2 (human C5 R885C-mmh [6]): 11 min; 100 nM Human C5 R885H-mmh Bound (RU) (human C5 R885H-mmh [7]): 65 RU; Kd (human C5 R885H-mmh [7]): 1.22 nM; koff (human C5 R885H-mmh [7]): 0.000217 s⁻¹; kon (human C5 R885H-mmh [7]): 178000 M⁻¹ s⁻¹; t1/2 (human C5 R885H-mmh [7]): 53 min; 100 nM Human C5 R885C-mmh Bound (RU) (human C5 R885C-mmh [8]): 63 RU; Kd (human C5 R885C-mmh [8]): 2.03 nM; koff (human C5 R885C-mmh [8]): 0.000218 s⁻¹; kon (human C5 R885C-mmh [8]): 107000 M⁻¹ s⁻¹; t1/2 (human C5 R885C-mmh [8]): 53 min |
